Experimental data taken from patent publication US20180155450A1 (Sanofi, published 2018).
Values belong to the binder of their own block, whether it stands above or below them.

Legend:
[1] = target: T1, recombinant human IL4 (human, UniProt P05112 25-153); experiment: SPR (Biacore 3000), captured CODV-Ig, antigen as analyte;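 further: kd derived from kinetic fits in BIAevaluation 4.1, with signals referenced against a flow cell lacking captured antibody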
T1 construct: bought; also called Antigen1
T1 sequence (looked up): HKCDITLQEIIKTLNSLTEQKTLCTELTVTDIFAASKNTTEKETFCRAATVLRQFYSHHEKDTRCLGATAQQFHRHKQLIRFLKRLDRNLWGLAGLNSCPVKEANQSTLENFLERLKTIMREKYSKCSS
Experimental: (§1) Kinetic binding analysis by Biacore was performed as follows. Surface plasmon resonance technology on a Biacore 3000 (GE Healthcare) was used for detailed kinetic characterization of purified antibodies. […] Chip surfaces were regenerated with 10 mM glycine pH 2.5. Kinetic parameters were analyzed and calculated in the BIAevaluation program package v4.1 using a flow cell without captured antibody as a reference.

[2] = target: T2, recombinant human IL13 (human, UniProt P35225 35-146, limits assumed); experiment: as above
T2 construct: bought; also called Antigen2
T2 sequence (P35225 35-146 limits assumed): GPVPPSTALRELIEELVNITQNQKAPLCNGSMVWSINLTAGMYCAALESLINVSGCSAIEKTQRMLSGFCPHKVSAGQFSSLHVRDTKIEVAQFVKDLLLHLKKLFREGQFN
Experimental: as §1

B1: CODV-Ig Batch ID 210 (IL4 × IL13 on HC; L1=7, L2=5, L3=2, L4=0) (bispecific antibody)
heavy: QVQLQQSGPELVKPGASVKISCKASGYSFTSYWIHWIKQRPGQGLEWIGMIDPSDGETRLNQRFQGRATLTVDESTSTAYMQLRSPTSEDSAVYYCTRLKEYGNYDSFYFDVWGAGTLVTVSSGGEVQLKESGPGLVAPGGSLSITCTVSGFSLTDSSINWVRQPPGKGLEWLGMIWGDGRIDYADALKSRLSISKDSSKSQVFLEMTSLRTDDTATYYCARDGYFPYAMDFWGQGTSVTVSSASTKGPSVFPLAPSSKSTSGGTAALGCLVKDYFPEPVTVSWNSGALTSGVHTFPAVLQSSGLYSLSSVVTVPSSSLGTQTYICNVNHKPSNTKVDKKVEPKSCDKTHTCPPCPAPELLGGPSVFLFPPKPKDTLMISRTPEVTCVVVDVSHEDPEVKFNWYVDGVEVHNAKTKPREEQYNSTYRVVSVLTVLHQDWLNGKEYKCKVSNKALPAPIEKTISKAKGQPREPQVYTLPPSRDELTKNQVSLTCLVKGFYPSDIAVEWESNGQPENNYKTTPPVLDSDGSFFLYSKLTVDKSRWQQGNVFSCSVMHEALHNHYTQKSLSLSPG
light: DIVLTQSPASLAVSLGQRATISCRASESVDSYGQSYMHWYQQKAGQPPKLLIYLASNLESGVPARFSGSGSRTDFTLTIDPVQAEDAATYYCQQNAEDSRTFGGGTKLEIKGGGGGGGDIQMTQSPASLSVSVGDTITLTCHASQNIDVWLSWFQQKPGNIPKLLIYKASNLHTGVPSRFSGSGSGTGFTLTISSLQPEDIATYYCQQAHSYPFTFGGGTKLEIKGGGGGRTVAAPSVFIFPPSDEQLKSGTASVVCLLNNFYPREAKVQWKVDNALQSGNSQESVTEQDSKDSTYSLSSTLTLSKADYEKHKVYACEVTHQGLSSPVTKSFNRGEC
notes: IgG1 CODV-Ig, heavy chain as template; L4 = 0 (no linker)
Kd [1]: 0.004 nM

B3: CODV-Ig Batch ID 204 (IL4 × IL13 on HC; L1=7, L2=5, L3=1, L4=2) (bispecific antibody, IgG1)
heavy: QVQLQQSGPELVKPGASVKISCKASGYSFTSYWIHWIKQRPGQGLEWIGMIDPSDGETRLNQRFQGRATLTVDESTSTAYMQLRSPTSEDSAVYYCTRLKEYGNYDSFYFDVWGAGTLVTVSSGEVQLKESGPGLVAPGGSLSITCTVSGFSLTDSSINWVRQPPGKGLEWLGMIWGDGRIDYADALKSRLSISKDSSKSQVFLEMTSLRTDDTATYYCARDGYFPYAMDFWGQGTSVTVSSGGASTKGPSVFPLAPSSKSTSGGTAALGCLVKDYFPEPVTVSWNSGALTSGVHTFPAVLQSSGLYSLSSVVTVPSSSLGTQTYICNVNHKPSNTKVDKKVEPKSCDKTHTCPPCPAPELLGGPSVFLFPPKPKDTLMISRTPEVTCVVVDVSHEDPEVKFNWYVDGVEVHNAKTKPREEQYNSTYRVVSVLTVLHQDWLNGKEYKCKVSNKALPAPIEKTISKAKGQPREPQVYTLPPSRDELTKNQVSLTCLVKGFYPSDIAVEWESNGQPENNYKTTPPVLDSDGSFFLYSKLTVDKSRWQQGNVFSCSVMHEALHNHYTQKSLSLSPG
light: B1 light
notes: IgG1 CODV-Ig, heavy chain as template
Kd [1]: 0.003 nM

B4: CODV-Ig Batch ID 234 (IL4 × IL13 on HC; L1=7, L2=5, L3=5, L4=0) (bispecific antibody)
heavy: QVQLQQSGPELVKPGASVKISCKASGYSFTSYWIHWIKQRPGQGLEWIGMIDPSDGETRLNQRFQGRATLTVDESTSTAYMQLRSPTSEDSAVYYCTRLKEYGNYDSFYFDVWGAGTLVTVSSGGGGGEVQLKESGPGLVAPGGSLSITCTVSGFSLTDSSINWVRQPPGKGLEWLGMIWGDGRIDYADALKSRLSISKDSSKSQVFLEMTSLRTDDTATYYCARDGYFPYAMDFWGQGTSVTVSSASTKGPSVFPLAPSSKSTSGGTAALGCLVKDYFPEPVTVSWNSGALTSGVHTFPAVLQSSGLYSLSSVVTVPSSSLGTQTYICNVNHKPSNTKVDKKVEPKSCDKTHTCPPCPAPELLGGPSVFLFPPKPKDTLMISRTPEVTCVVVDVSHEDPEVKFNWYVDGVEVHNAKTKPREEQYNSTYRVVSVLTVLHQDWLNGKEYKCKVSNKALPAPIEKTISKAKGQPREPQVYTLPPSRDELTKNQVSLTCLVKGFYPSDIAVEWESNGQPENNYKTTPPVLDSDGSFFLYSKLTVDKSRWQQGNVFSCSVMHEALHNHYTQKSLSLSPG
light: B1 light
notes: as for B1
Kd [1]: 0.003 nM

B9: CODV-Ig Batch ID 215 (IL4 × IL13 on HC; L1=7, L2=3, L3=2, L4=2) (bispecific antibody)
chain 1: not shown
chain 2: DIVLTQSPASLAVSLGQRATISCRASESVDSYGQSYMHWYQQKAGQPPKLLIYLASNLESGVPARFSGSGSRTDFTLTIDPVQAEDAATYYCQQNAEDSRTFGGGTKLEIKGGGGGGGDIQMTQSPASLSVSVGDTITLTCHASQNIDVWLSWFQQKPGNIPKLLIYKASNLHTGVPSRFSGSGSGTGFTLTISSLQPEDIATYYCQQAHSYPFTFGGGTKLEIKGGGRTVAAPSVFIFPPSDEQLKSGTASVVCLLNNFYPREAKVQWKVDNALQSGNSQESVTEQDSKDSTYSLSSTLTLSKADYEKHKVYACEVTHQGLSSPVTKSFNRGEC
Kd [2]: 0.05 nM
Kd [1]: 0.004 nM

B11: CODV-Ig Batch ID 232 (IL4 × IL13 on HC; L1=5, L2=5, L3=5, L4=0) (bispecific antibody)
heavy: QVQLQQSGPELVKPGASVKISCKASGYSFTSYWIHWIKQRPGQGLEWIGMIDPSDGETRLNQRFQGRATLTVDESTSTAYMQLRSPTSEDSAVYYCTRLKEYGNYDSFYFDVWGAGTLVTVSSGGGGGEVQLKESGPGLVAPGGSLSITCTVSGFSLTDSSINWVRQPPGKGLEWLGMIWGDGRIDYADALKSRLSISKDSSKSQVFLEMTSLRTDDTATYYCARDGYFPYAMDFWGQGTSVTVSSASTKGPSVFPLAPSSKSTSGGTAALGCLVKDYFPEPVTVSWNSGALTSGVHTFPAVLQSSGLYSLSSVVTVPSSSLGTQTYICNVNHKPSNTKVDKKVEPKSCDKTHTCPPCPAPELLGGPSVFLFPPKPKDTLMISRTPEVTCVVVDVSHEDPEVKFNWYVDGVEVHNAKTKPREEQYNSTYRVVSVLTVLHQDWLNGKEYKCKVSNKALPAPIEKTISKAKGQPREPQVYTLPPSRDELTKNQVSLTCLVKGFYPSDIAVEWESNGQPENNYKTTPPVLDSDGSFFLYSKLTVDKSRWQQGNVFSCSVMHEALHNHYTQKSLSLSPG
light: DIVLTQSPASLAVSLGQRATISCRASESVDSYGQSYMHWYQQKAGQPPKLLIYLASNLESGVPARFSGSGSRTDFTLTIDPVQAEDAATYYCQQNAEDSRTFGGGTKLEIKGGGGGDIQMTQSPASLSVSVGDTITLTCHASQNIDVWLSWFQQKPGNIPKLLIYKASNLHTGVPSRFSGSGSGTGFTLTISSLQPEDIATYYCQQAHSYPFTFGGGTKLEIKGGGGGRTVAAPSVFIFPPSDEQLKSGTASVVCLLNNFYPREAKVQWKVDNALQSGNSQESVTEQDSKDSTYSLSSTLTLSKADYEKHKVYACEVTHQGLSSPVTKSFNRGEC
notes: as for B1
Kd [1]: 0.008 nM

B12: CODV-Ig Batch ID 214 (IL4 × IL13 on HC; L1=5, L2=5, L3=2, L4=2) (bispecific antibody)
chain 1: not shown
chain 2: B11 light
Kd [2]: 0.053 nM
Kd [1]: 0.01 nM

B16: CODV-Ig Batch ID 225 (IL4 × IL13 on HC; L1=3, L2=6, L3=3, L4=2) (bispecific antibody)
chain 1: not shown
chain 2: DIVLTQSPASLAVSLGQRATISCRASESVDSYGQSYMHWYQQKAGQPPKLLIYLASNLESGVPARFSGSGSRTDFTLTIDPVQAEDAATYYCQQNAEDSRTFGGGTKLEIKGGGDIQMTQSPASLSVSVGDTITLTCHASQNIDVWLSWFQQKPGNIPKLLIYKASNLHTGVPSRFSGSGSGTGFTLTISSLQPEDIATYYCQQAHSYPFTFGGGTKLEIKGGGGGGRTVAAPSVFIFPPSDEQLKSGTASVVCLLNNFYPREAKVQWKVDNALQSGNSQESVTEQDSKDSTYSLSSTLTLSKADYEKHKVYACEVTHQGLSSPVTKSFNRGEC
Kd [2]: 0.068 nM
Kd [1]: 0.006 nM

Further binders by falling Kd [1], results first:

Kd [2]: 0.04 nM
Kd [1]: 0.011 nM
B2: CODV-Ig Batch ID 216 (IL4 × IL13 on HC; L1=7, L2=5, L3=2, L4=2) (bispecific antibody)
chain 1: not shown
chain 2: B1 light

Kd [1]: 0.01 nM
B10: CODV-Ig Batch ID 208 (IL4 × IL13 on HC; L1=5, L2=5, L3=2, L4=0) (bispecific antibody)
heavy: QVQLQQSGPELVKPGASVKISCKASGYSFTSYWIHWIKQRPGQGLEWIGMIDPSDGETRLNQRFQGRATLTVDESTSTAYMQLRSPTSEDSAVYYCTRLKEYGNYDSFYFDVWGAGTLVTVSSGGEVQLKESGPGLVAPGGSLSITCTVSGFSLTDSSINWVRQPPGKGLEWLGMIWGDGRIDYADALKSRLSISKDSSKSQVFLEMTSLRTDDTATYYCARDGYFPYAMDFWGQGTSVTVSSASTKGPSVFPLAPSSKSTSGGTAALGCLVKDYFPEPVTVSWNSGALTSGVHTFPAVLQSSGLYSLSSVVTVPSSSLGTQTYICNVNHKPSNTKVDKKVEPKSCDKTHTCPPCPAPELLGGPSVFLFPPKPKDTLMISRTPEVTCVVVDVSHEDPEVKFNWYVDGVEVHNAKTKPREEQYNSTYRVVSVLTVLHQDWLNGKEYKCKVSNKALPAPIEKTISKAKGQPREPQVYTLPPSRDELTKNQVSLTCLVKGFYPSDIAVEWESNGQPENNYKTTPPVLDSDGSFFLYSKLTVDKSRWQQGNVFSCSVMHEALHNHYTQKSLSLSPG
light: B11 light
notes: as for B1

Kd [2]: 0.071 nM
Kd [1]: 0.008 nM
B15: CODV-Ig Batch ID 219 (IL4 × IL13 on HC; L1=3, L2=6, L3=3, L4=0) (bispecific antibody)
chain 1: not shown
chain 2: B16 chain 2

Kd [2]: 0.053 nM
Kd [1]: 0.007 nM
B13: CODV-Ig Batch ID 222 (IL4 × IL13 on HC; L1=6, L2=6, L3=3, L4=0) (bispecific antibody)
chain 1: not shown
chain 2: DIVLTQSPASLAVSLGQRATISCRASESVDSYGQSYMHWYQQKAGQPPKLLIYLASNLESGVPARFSGSGSRTDFTLTIDPVQAEDAATYYCQQNAEDSRTFGGGTKLEIKGGGGGGDIQMTQSPASLSVSVGDTITLTCHASQNIDVWLSWFQQKPGNIPKLLIYKASNLHTGVPSRFSGSGSGTGFTLTISSLQPEDIATYYCQQAHSYPFTFGGGTKLEIKGGGGGGRTVAAPSVFIFPPSDEQLKSGTASVVCLLNNFYPREAKVQWKVDNALQSGNSQESVTEQDSKDSTYSLSSTLTLSKADYEKHKVYACEVTHQGLSSPVTKSFNRGEC

Kd [2]: 0.044 nM
Kd [1]: 0.007 nM
B14: CODV-Ig Batch ID 228 (IL4 × IL13 on HC; L1=6, L2=6, L3=3, L4=2) (bispecific antibody)
chain 1: not shown
chain 2: B13 chain 2

Kd [2]: 0.027 nM
Kd [1]: 0.005 nM
B6: CODV-Ig Batch ID 213 (IL4 × IL13 on HC; L1=5, L2=3, L3=2, L4=2) (bispecific antibody)
chain 1: not shown
chain 2: DIVLTQSPASLAVSLGQRATISCRASESVDSYGQSYMHWYQQKAGQPPKLLIYLASNLESGVPARFSGSGSRTDFTLTIDPVQAEDAATYYCQQNAEDSRTFGGGTKLEIKGGGGGDIQMTQSPASLSVSVGDTITLTCHASQNIDVWLSWFQQKPGNIPKLLIYKASNLHTGVPSRFSGSGSGTGFTLTISSLQPEDIATYYCQQAHSYPFTFGGGTKLEIKGGGRTVAAPSVFIFPPSDEQLKSGTASVVCLLNNFYPREAKVQWKVDNALQSGNSQESVTEQDSKDSTYSLSSTLTLSKADYEKHKVYACEVTHQGLSSPVTKSFNRGEC

Kd [2]: 0.047 nM
Kd [1]: 0.005 nM
B7: CODV-Ig Batch ID 209 (IL4 × IL13 on HC; L1=7, L2=3, L3=2, L4=0) (bispecific antibody)
chain 1: not shown
chain 2: B9 chain 2

Kd [2]: 0.033 nM
Kd [1]: 0.003 nM
B5: CODV-Ig Batch ID 207 (IL4 × IL13 on HC; L1=5, L2=3, L3=2, L4=0) (bispecific antibody)
chain 1: not shown
chain 2: B6 chain 2

Kd [2]: 0.113 nM
Kd [1]: 0.003 nM
B8: CODV-Ig Batch ID 233 (IL4 × IL13 on HC; L1=7, L2=3, L3=5, L4=0) (bispecific antibody)
chain 1: not shown
chain 2: B9 chain 2
